The target in experiment [1] is rhesus CD18 (rhesus) (UniProt H9Z8N5). Description: saturation binding, rhesus leukocytes, donor 2, Kd(app).
Experiment [2] has the same target. Description: saturation binding, rhesus leukocytes, donor 1, Kd(app).
The target in experiment [3] is human CD18 (human) (UniProt P05107). Description: cell-based or functional assay.
Experiment [4] concerns the target rhesus CD18 (rhesus) (UniProt H9Z8N5). Kind of experiment: cell-based or functional assay.

human CD18 (human), sequence (P05107 23-769): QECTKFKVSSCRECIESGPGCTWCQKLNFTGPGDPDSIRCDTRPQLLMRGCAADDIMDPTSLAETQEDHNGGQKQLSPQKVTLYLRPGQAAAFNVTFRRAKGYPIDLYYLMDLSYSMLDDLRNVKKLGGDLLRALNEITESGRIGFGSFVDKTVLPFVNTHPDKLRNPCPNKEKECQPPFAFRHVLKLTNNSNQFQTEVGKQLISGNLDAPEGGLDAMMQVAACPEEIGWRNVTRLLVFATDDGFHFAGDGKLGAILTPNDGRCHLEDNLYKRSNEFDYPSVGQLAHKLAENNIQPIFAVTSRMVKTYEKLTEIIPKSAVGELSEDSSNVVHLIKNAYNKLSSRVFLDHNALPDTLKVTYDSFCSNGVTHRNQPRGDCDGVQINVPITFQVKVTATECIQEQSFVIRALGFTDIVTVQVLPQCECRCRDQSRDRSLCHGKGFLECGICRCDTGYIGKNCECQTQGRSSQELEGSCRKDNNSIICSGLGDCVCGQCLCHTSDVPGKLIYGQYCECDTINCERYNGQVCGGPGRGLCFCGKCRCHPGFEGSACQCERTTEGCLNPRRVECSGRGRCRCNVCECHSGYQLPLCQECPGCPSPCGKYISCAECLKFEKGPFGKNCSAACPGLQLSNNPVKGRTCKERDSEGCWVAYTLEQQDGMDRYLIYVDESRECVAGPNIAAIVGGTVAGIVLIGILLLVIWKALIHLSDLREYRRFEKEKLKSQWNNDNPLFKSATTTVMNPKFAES

Regarding murine anti-human CD18 antibody MHM23, the Kd in experiment [1] amounted to 4.5 nM; in experiment [2] it was 3.9 nM. In experiment [3], this substance yielded an IC50, blocking of cell adhesion, Rh/HuCD11a:HuK of 1.4 nM. Further, the IC50, blocking of cell adhesion, RhLy:HuICAM in experiment [4] came out at 1.2 nM. The substance also displayed an IC50, blocking of cell adhesion, RhLy:HuK in experiment [4] of 1.6 nM.

These data come from patent publication EP1516629B1.
